# Target: CD30 (analyte in SPR) (UniProt P28908)
# Experiment: SPR, 25° C. pH 7.4, scFv captured on chip, CD30 as analyte, average value
# Sequence of CD30 (analyte in SPR) (P28908 19-379 limits assumed): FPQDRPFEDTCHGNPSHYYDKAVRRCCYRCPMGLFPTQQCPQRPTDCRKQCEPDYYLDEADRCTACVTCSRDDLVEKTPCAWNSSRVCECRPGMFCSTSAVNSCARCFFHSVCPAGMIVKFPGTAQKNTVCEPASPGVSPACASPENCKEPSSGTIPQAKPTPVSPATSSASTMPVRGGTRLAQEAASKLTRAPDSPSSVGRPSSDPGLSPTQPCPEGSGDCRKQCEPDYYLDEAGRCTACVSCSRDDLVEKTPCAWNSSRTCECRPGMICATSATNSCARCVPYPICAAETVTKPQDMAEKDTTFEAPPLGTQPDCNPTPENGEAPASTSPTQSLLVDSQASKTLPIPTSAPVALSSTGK
binder,measurement,value
"anti-CD30 clone 52-2 scFv (scFv, part only; not given: Linker, domain order, tag, V domains shown, not shown: another chain or arm of the molecule; small tags and cut ends) VH: EVQLVESGGGLVQPGGSLRLSCAASGFTFSSYYMHWVRQAPGKGLEWVSAISWSGGSTYYADSVKGRFTISRDNSKNTLYLQMNSLRAEDTAVYYCARDRFMPFIPNTLGFDVWGQGTLVTVSS VL: DIQMTQSPSSLSASVGDRVTITCQASQDISNYLNWYQQKPGKAPKLLIYVASNLETGVPSRFSGSGSGTDFTFTISSLQPEDIATYYCQQDADVPLTFGQGTKVEIK",Kd,0.8 nM

# Reference: patent US20220275098A1
